The record followed here is patent US20220048967A1 (published 2022).

Assay [1] concerns the target human GLP-1 receptor (GLP-1R) (human, UniProt P43220 24-463). Nature of the assay: cell-based or functional assay.
The target in assay [2] is T1, human gastric inhibitory peptide receptor (GIPR) (human, UniProt P48546 22-466).
T1 sequence (looked up): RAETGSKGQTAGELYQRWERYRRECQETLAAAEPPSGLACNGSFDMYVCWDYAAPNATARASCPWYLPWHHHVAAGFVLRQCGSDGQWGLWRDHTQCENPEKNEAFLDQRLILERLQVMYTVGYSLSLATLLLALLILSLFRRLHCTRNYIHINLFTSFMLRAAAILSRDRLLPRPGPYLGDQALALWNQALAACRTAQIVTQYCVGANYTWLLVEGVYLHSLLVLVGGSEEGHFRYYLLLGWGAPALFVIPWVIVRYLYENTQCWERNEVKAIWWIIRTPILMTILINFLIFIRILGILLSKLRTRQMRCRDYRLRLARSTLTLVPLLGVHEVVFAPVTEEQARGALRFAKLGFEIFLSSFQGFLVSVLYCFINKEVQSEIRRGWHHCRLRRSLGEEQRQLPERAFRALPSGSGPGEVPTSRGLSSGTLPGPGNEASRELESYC
The assay can be described thus: cell-based or functional assay.

Numbered stars: 1 amine (or outer) side, 2 acyl side, 3 side chain; on linkers, the order of the positions; unused ones are H or OH. Square brackets hold non-standard residues; d marks the D form. Side chains are listed from the residue outwards. Ends that are not written are not given here. * marks the point of attachment. C18 diacid = O=C(O)CCCCCCCCCCCCCCCCC(=O)*; γGlu = O=C(O)[C@H](CCC(=O)[*:2])N[*:1]; AEEA = NCCOCCOCC(=O)O; Aib = CC(C)(N)C(=O)O

B1: Example 268 (peptide)
peptide: Y[Aib]EGTFTSDYSILLDEK([AEEA-AEEA-γGlu-C18 diacid])AQ[Aib]AFIEYLIEGGPSSG-NH2
modifications: N-terminus assumed
SMILES: CC[C@H](C)[C@H](NC(=O)[C@H](CC(C)C)NC(=O)[C@H](Cc1ccc(O)cc1)NC(=O)[C@H](CCC(=O)O)NC(=O)[C@@H](NC(=O)[C@H](Cc1ccccc1)NC(=O)[C@H](C)NC(=O)C(C)(C)NC(=O)[C@H](CCC(N)=O)NC(=O)[C@H](C)NC(=O)[C@H](CCCCNC(=O)COCCOCCNC(=O)COCCOCCNC(=O)CC[C@H](NC(=O)CCCCCCCCCCCCCCCCC(=O)O)C(=O)O)NC(=O)[C@H](CCC(=O)O)NC(=O)[C@H](CC(=O)O)NC(=O)[C@H](CC(C)C)NC(=O)[C@H](CC(C)C)NC(=O)[C@@H](NC(=O)[C@H](CO)NC(=O)[C@H](Cc1ccc(O)cc1)NC(=O)[C@H](CC(=O)O)NC(=O)[C@H](CO)NC(=O)[C@@H](NC(=O)[C@H](Cc1ccccc1)NC(=O)[C@@H](NC(=O)CNC(=O)[C@H](CCC(=O)O)NC(=O)C(C)(C)NC(=O)[C@@H](N)Cc1ccc(O)cc1)[C@@H](C)O)[C@@H](C)O)[C@@H](C)CC)[C@@H](C)CC)C(=O)N[C@@H](CCC(=O)O)C(=O)NCC(=O)NCC(=O)N1CCC[C@H]1C(=O)N[C@@H](CO)C(=O)N[C@@H](CO)C(=O)NCC(N)=O
Consider B1, for which, in assay [1], the “hGLP1R cAMP EC50 ratio” value was 0.935 and the “hGLP1R cAMP Rel EC50” value was 0.0572 nM. Further, in assay [2], the “hGIPR cAMP EC50 ratio” value worked out at 0.851 and the “hGIPR cAMP Rel EC50” value worked out at 0.239 nM.

B2: Example 265 (peptide)
peptide: YXEGTXTSDXSIXLDXKAQXEFIXXLIEGG
modifications: Aib2, αMeF(2F)6, 4Pal10, αMeF13 (so in the source), Orn16, (2-[2-(2-Amino-ethoxy)-ethoxy]-acetyl)2-(γ-Glu)-CO-(CH2)16-CO2H on K17, Aib20, D-Glu24, αMeY25, C-terminal NH2
For B2, in assay [1], the “hGLP1R cAMP EC50 ratio” value was 3.27 and the “hGLP1R cAMP Rel EC50” value stood at 0.0223 nM. In assay [2], the “hGIPR cAMP EC50 ratio” value was 7.56 and the “hGIPR cAMP Rel EC50” value was 0.0229 nM.

B3: Example 267 (peptide)
peptide: Y[Aib]EGTFTSDYSILLDKK([AEEA-AEEA-γGlu-C18 diacid])AQ[Aib]AFIEYLIEGG-NH2
modifications: N-terminus assumed
SMILES: CC[C@H](C)[C@H](NC(=O)[C@H](CC(C)C)NC(=O)[C@H](Cc1ccc(O)cc1)NC(=O)[C@H](CCC(=O)O)NC(=O)[C@@H](NC(=O)[C@H](Cc1ccccc1)NC(=O)[C@H](C)NC(=O)C(C)(C)NC(=O)[C@H](CCC(N)=O)NC(=O)[C@H](C)NC(=O)[C@H](CCCCNC(=O)COCCOCCNC(=O)COCCOCCNC(=O)CC[C@H](NC(=O)CCCCCCCCCCCCCCCCC(=O)O)C(=O)O)NC(=O)[C@H](CCCCN)NC(=O)[C@H](CC(=O)O)NC(=O)[C@H](CC(C)C)NC(=O)[C@H](CC(C)C)NC(=O)[C@@H](NC(=O)[C@H](CO)NC(=O)[C@H](Cc1ccc(O)cc1)NC(=O)[C@H](CC(=O)O)NC(=O)[C@H](CO)NC(=O)[C@@H](NC(=O)[C@H](Cc1ccccc1)NC(=O)[C@@H](NC(=O)CNC(=O)[C@H](CCC(=O)O)NC(=O)C(C)(C)NC(=O)[C@@H](N)Cc1ccc(O)cc1)[C@@H](C)O)[C@@H](C)O)[C@@H](C)CC)[C@@H](C)CC)C(=O)N[C@@H](CCC(=O)O)C(=O)NCC(=O)NCC(N)=O
Consider B3, for which, in assay [1], the “hGLP1R cAMP EC50 ratio” value stood at 0.974 and the “hGLP1R cAMP Rel EC50” value was determined as 0.054 nM. In assay [2], the “hGIPR cAMP EC50 ratio” value came to 1.5 and the “hGIPR cAMP Rel EC50” value amounted to 0.108 nM.

B4: Example 270 (peptide)
peptide: Y[Aib]EGTFTSDYSILLDKK([AEEA-AEEA-γGlu-C18 diacid])AQ[Aib]EFIEYLIEGGPSSG-NH2
modifications: N-terminus assumed
SMILES: CC[C@H](C)[C@H](NC(=O)[C@H](CC(C)C)NC(=O)[C@H](Cc1ccc(O)cc1)NC(=O)[C@H](CCC(=O)O)NC(=O)[C@@H](NC(=O)[C@H](Cc1ccccc1)NC(=O)[C@H](CCC(=O)O)NC(=O)C(C)(C)NC(=O)[C@H](CCC(N)=O)NC(=O)[C@H](C)NC(=O)[C@H](CCCCNC(=O)COCCOCCNC(=O)COCCOCCNC(=O)CC[C@H](NC(=O)CCCCCCCCCCCCCCCCC(=O)O)C(=O)O)NC(=O)[C@H](CCCCN)NC(=O)[C@H](CC(=O)O)NC(=O)[C@H](CC(C)C)NC(=O)[C@H](CC(C)C)NC(=O)[C@@H](NC(=O)[C@H](CO)NC(=O)[C@H](Cc1ccc(O)cc1)NC(=O)[C@H](CC(=O)O)NC(=O)[C@H](CO)NC(=O)[C@@H](NC(=O)[C@H](Cc1ccccc1)NC(=O)[C@@H](NC(=O)CNC(=O)[C@H](CCC(=O)O)NC(=O)C(C)(C)NC(=O)[C@@H](N)Cc1ccc(O)cc1)[C@@H](C)O)[C@@H](C)O)[C@@H](C)CC)[C@@H](C)CC)C(=O)N[C@@H](CCC(=O)O)C(=O)NCC(=O)NCC(=O)N1CCC[C@H]1C(=O)N[C@@H](CO)C(=O)N[C@@H](CO)C(=O)NCC(N)=O
Regarding B4, in assay [1], the “hGLP1R cAMP EC50 ratio” value was 0.4 and the “hGLP1R cAMP Rel EC50” value was 0.128 nM. In assay [2], the “hGIPR cAMP EC50 ratio” value turned out to be 0.627 and the “hGIPR cAMP Rel EC50” value was 0.328 nM.

B5: Example 271 (peptide)
peptide: Y[Aib]EGTFTSDYSILLDKK([AEEA-AEEA-γGlu-C18 diacid])AQ[Aib]EFIEYLIEGG-NH2
modifications: N-terminus assumed
SMILES: CC[C@H](C)[C@H](NC(=O)[C@H](CC(C)C)NC(=O)[C@H](Cc1ccc(O)cc1)NC(=O)[C@H](CCC(=O)O)NC(=O)[C@@H](NC(=O)[C@H](Cc1ccccc1)NC(=O)[C@H](CCC(=O)O)NC(=O)C(C)(C)NC(=O)[C@H](CCC(N)=O)NC(=O)[C@H](C)NC(=O)[C@H](CCCCNC(=O)COCCOCCNC(=O)COCCOCCNC(=O)CC[C@H](NC(=O)CCCCCCCCCCCCCCCCC(=O)O)C(=O)O)NC(=O)[C@H](CCCCN)NC(=O)[C@H](CC(=O)O)NC(=O)[C@H](CC(C)C)NC(=O)[C@H](CC(C)C)NC(=O)[C@@H](NC(=O)[C@H](CO)NC(=O)[C@H](Cc1ccc(O)cc1)NC(=O)[C@H](CC(=O)O)NC(=O)[C@H](CO)NC(=O)[C@@H](NC(=O)[C@H](Cc1ccccc1)NC(=O)[C@@H](NC(=O)CNC(=O)[C@H](CCC(=O)O)NC(=O)C(C)(C)NC(=O)[C@@H](N)Cc1ccc(O)cc1)[C@@H](C)O)[C@@H](C)O)[C@@H](C)CC)[C@@H](C)CC)C(=O)N[C@@H](CCC(=O)O)C(=O)NCC(=O)NCC(N)=O
Turning to B5, in assay [1], the “hGLP1R cAMP EC50 ratio” value is 1.35 and the “hGLP1R cAMP Rel EC50” value came to 0.0352 nM. In assay [2], the “hGIPR cAMP EC50 ratio” value amounted to 0.614 and the “hGIPR cAMP Rel EC50” value worked out at 0.334 nM.

B6: Example 269 (peptide)
peptide: Y[Aib]EGTFTSDYSILLDEK([AEEA-AEEA-γGlu-C18 diacid])AQ[Aib]AFIEYLIEGG-NH2
modifications: N-terminus assumed
SMILES: CC[C@H](C)[C@H](NC(=O)[C@H](CC(C)C)NC(=O)[C@H](Cc1ccc(O)cc1)NC(=O)[C@H](CCC(=O)O)NC(=O)[C@@H](NC(=O)[C@H](Cc1ccccc1)NC(=O)[C@H](C)NC(=O)C(C)(C)NC(=O)[C@H](CCC(N)=O)NC(=O)[C@H](C)NC(=O)[C@H](CCCCNC(=O)COCCOCCNC(=O)COCCOCCNC(=O)CC[C@H](NC(=O)CCCCCCCCCCCCCCCCC(=O)O)C(=O)O)NC(=O)[C@H](CCC(=O)O)NC(=O)[C@H](CC(=O)O)NC(=O)[C@H](CC(C)C)NC(=O)[C@H](CC(C)C)NC(=O)[C@@H](NC(=O)[C@H](CO)NC(=O)[C@H](Cc1ccc(O)cc1)NC(=O)[C@H](CC(=O)O)NC(=O)[C@H](CO)NC(=O)[C@@H](NC(=O)[C@H](Cc1ccccc1)NC(=O)[C@@H](NC(=O)CNC(=O)[C@H](CCC(=O)O)NC(=O)C(C)(C)NC(=O)[C@@H](N)Cc1ccc(O)cc1)[C@@H](C)O)[C@@H](C)O)[C@@H](C)CC)[C@@H](C)CC)C(=O)N[C@@H](CCC(=O)O)C(=O)NCC(=O)NCC(N)=O
Turning to B6, in assay [1], the “hGLP1R cAMP EC50 ratio” value is 0.828 and the “hGLP1R cAMP Rel EC50” value was 0.0595 nM. Besides, in assay [2], the “hGIPR cAMP EC50 ratio” value turned out to be 0.825 and the “hGIPR cAMP Rel EC50” value worked out at 0.257 nM.

B7: Example 266 (peptide)
peptide: Y[Aib]EGTFTSDYSILLDKK([AEEA-AEEA-γGlu-C18 diacid])AQ[Aib]AFIEYLIEGGPSSG-NH2
modifications: N-terminus assumed
SMILES: CC[C@H](C)[C@H](NC(=O)[C@H](CC(C)C)NC(=O)[C@H](Cc1ccc(O)cc1)NC(=O)[C@H](CCC(=O)O)NC(=O)[C@@H](NC(=O)[C@H](Cc1ccccc1)NC(=O)[C@H](C)NC(=O)C(C)(C)NC(=O)[C@H](CCC(N)=O)NC(=O)[C@H](C)NC(=O)[C@H](CCCCNC(=O)COCCOCCNC(=O)COCCOCCNC(=O)CC[C@H](NC(=O)CCCCCCCCCCCCCCCCC(=O)O)C(=O)O)NC(=O)[C@H](CCCCN)NC(=O)[C@H](CC(=O)O)NC(=O)[C@H](CC(C)C)NC(=O)[C@H](CC(C)C)NC(=O)[C@@H](NC(=O)[C@H](CO)NC(=O)[C@H](Cc1ccc(O)cc1)NC(=O)[C@H](CC(=O)O)NC(=O)[C@H](CO)NC(=O)[C@@H](NC(=O)[C@H](Cc1ccccc1)NC(=O)[C@@H](NC(=O)CNC(=O)[C@H](CCC(=O)O)NC(=O)C(C)(C)NC(=O)[C@@H](N)Cc1ccc(O)cc1)[C@@H](C)O)[C@@H](C)O)[C@@H](C)CC)[C@@H](C)CC)C(=O)N[C@@H](CCC(=O)O)C(=O)NCC(=O)NCC(=O)N1CCC[C@H]1C(=O)N[C@@H](CO)C(=O)N[C@@H](CO)C(=O)NCC(N)=O
For the molecule B7, in assay [1], the “hGLP1R cAMP EC50 ratio” value is 0.627 and the “hGLP1R cAMP Rel EC50” value amounted to 0.0883 nM. In assay [2], the “hGIPR cAMP EC50 ratio” value is 2.82 and the “hGIPR cAMP Rel EC50” value came to 0.0442 nM.
